What all share (format): cell-based
Assay [1] concerns gene editing with Cas9 and dCas9. The experiment in a line: Screen of 322 new SSAP proteins, activity across all experiments (Cas9 and dCas9, Table 5). Also noted: scale not given here. The text has this: (§1) 322 new SSAP proteins were identified from sequence data, synthesized, and screened for activity with Cas9 and dCas9. Gene editing activities are shown below in Table 5, followed by amino acid sequences of the proteins.

The test system of another assay is gene editing with dCas9. Briefly: Screen of 322 new SSAP proteins, gene editing activity with dCas9 (Table 5). Also noted: dCas9 with SSAP activity: scale not given here.
From the text: as §1

A further assay has as its system gene editing with Cas9. The experiment in a line: Screen of 322 new SSAP proteins, gene editing activity with Cas9 (Table 5). Also noted: Cas9 with SSAP activity: scale not given here.
From the text: as §1

For “LambdaBet (MSTALATLAGKLAERVGMDSVDPQELITTLRQTAFKGDASDAQFIALLI)”, the “Activity across all experiments” value in assay [1] was −3.613. Besides, in the assay on gene editing with dCas9, the “dCas9 with SSAP activity” value is −2.737 and the “dCas9 with SSAP activity (normalized)” value is given as −0.416. Besides, in the assay on gene editing with Cas9, the “Cas9 with SSAP activity” value is recorded as −4.490 and the “Cas9 with SSAP activity (normalized)” value is given as −0.856.

B1: SSAP_163: SEQ ID NO: 332; Clostridium sp. Marseille-P3244 (protein, listed as Clostridium sp.)
chain: AARATNSVKEELAKKAETKAVGEKKLTRSMSIADLIKAMAPEIKKALPEVITPERFTRMALSALNTTPKLQECTQMSFLAALMNAAQLGLEPNTPLGQAYLIPFNNKGTMECQFQIGYKGLIDLGYRNPQMQIISAQAVYENDEFEYELGLNPKLEHRPALHDRGELRLFYGLFKLVNGGFGFEVMSKEAVDAYAKEYSKSFDSSFSPWKTNYEAMAKKTVIKQALKYAPIKADFRKALSTDETIKNEIAEDMSEIHGEDIFDAEYTEQTA
As to B1, the “Activity across all experiments” value in assay [1] is −0.742. In the assay on gene editing with dCas9, the “dCas9 with SSAP activity” value is reported as −2.847 and the “dCas9 with SSAP activity (normalized)” value is −0.374. In the assay with gene editing with Cas9, the “Cas9 with SSAP activity” value was found to be 1.362 and the “Cas9 with SSAP activity (normalized)” value was 1.914.

B2: SSAP_51: SEQ ID NO: 220 (protein)
chain: AENEKQALLQEENKSENVVSTVKRTALATNPFSDTDQFNNIFKMAQLISQSDMIPATYKGKPMNCVIALEQANRMGVSPLMVMQNLYVVKGVPSWSGQGCMMIIQGCGKFRDVDYVYSGEKGTDSRSCKVVATRISDGKRIEGTEITMQMVKSEGWISNTKWKNMPEQMLGYRAATFFARMYCPNELNGFATEGEAEDMNHKPQRIEAINVLGDTAHE
On to B2, for which the “Activity across all experiments” value in assay [1] is recorded as −1.512. In the assay with gene editing with dCas9, the “dCas9 with SSAP activity” value is listed as −2.900 and the “dCas9 with SSAP activity (normalized)” value is −0.907. In addition, in the assay on gene editing with Cas9, the “Cas9 with SSAP activity” value is given as −0.124 and the “Cas9 with SSAP activity (normalized)” value is given as −0.406.

B3: SSAP_265: SEQ ID NO: 434; Clostridium coskatii (protein, listed as Clostridium coskatii)
chain: SDKKMVVLNESHTMLNKLLETKQEALPKDFNKARFLQNCMTVLQDTKGIEQCQPITVARTMLKGAFLGLDFFNKECYAIPYKDNLQFQTDYKGEIKLAKKYSFNPIKDIYAKIVRQGDDFQEAIINGQQTINFTPVPFNNGEIIGAFAVCLFQDGSMLYETMAKQEIENTRKNFSKAPNSPAWTKTPGEMYKKTVLRRLCKLIELDFDSVECKKVYNETSDFEFENQQHEVSNFDKKDIDEDKIVEADVEVQDDNENNVPEDGE
For B3, the “Activity across all experiments” value in assay [1] is on record as −2.057. Also, in the assay on gene editing with dCas9, the “dCas9 with SSAP activity” value is −3.182 and the “dCas9 with SSAP activity (normalized)” value is −0.478. Further, in the assay on gene editing with Cas9, the “Cas9 with SSAP activity” value was −0.932 and the “Cas9 with SSAP activity (normalized)” value is listed as −0.510.

B4: SSAP_249: SEQ ID NO: 418; environmental Halophage eHP-30 (protein)
chain: TEQNQTPAKTESKSPIKAQLYKDNVQQRFQELLGERASAFMTSVMSVVKDNDQLSQAEPSSVLNAAMTAATLDMPIDNNLGMAYIVPYKDGKSGKTYAQFQLGYKGFIQLAQRSGQFKTISATPVRQGQIVTADPLRGYEFDFTQGQDKEVVGYAAYFALLNGFEKTLYMSKAEMEQHAASYAAGYKKGYSNWNRKFDEMALKTVIKQLLSKYAPLSVDMQKAQQTDQTVSVEEPNAIEQQEAAPEIDASSNNNQNQ
modifications: environmental Halophage eHP-30
On to B4, for which, in assay [1], the “Activity across all experiments” value is recorded as −3.156. In addition, in the assay on gene editing with dCas9, the “dCas9 with SSAP activity” value is reported as −3.279 and the “dCas9 with SSAP activity (normalized)” value is −0.575. Also, in the assay on gene editing with Cas9, the “Cas9 with SSAP activity” value is reported as −3.033 and the “Cas9 with SSAP activity (normalized)” value is given as −0.543.

B5: SSAP_234: SEQ ID NO: 403; Cellulosilyticum lentocellum (protein, listed as Cellulosilyticum lentocellum)
chain: SDKKELVLKETHSRLNQLLATKMEAMPKDFNQTRFLQNCMTVLQDTKGIENCHPVSIARTLLKGAFLGLDFFQRECYAIPYGGELQFQTDYKGETKMAKKYSIRDIKDIYAKVVRKGDEFKEEIVAGQQVVDFKPLPFNDAEIIGAFAVVLYQDGGMEYETMSTKQIEGIRDNFSKMKNGLMWTKTPEEAYKKTVLRRLTKKIEKDFASIDQAKAYEESSDMQFKQDEQKQDAKDPFADAVDVEFTEETEGQVRLDGEADGAK
Take B5: the “Activity across all experiments” value in assay [1] is on record as −1.177. For the same molecule, in the assay with gene editing with dCas9, the “dCas9 with SSAP activity” value is reported as −2.950 and the “dCas9 with SSAP activity (normalized)” value was −0.446. In the assay on gene editing with Cas9, the “Cas9 with SSAP activity” value is on record as 0.596 and the “Cas9 with SSAP activity (normalized)” value is given as 1.140.

B6: SSAP_105: SEQ ID NO: 274; unclassified Lysinibacillus (protein, listed as Lysinibacillus sp.)
chain: ATTTDLKAQMQQAPATQQKPKTIDDYLKQMAPAMAQALPKHMDVDRLMRLAMTTIRTTPALKDADVSSLLGAVMQAAQLGLEPGLMGHCYLLPFKNNKKGITEVQFIIGYKGMIDLARRSGHIQSIYAHAVYQKDEFEYELGLDPKLKHKPCMDEDKGNFVGAYAVAHFKDGGYQFEFMSKAEIEKRKGRSKAANSTYSPWATDYEEMAKKTVVRHMWKYLPISVEMQQQVAYDEGTAPKREMKDITPETEFFVDAPEIEVEVVNE
With B6, the “Activity across all experiments” value in assay [1] is on record as −1.882. In the assay with gene editing with dCas9, the “dCas9 with SSAP activity” value was −2.961 and the “dCas9 with SSAP activity (normalized)” value is given as −0.450. Further, in the assay with gene editing with Cas9, the “Cas9 with SSAP activity” value is listed as −0.802 and the “Cas9 with SSAP activity (normalized)” value was −0.382.

B7: SSAP_315: SEQ ID NO: 484; Pseudoalteromonas spongiae (protein, listed as Pseudoalteromonas spongiae)
chain: NKFQHLQTELSSQLLSTKERFNELNNKNNLKVNFEEEYNFFYHLVTSSFYNINGIATCTFSSLKEAFLNIAKYGLSINPKLNLCYIRTEQSCAQANVNIAVYDFGYKGLLKLITRTGKVKIVTADVFYENDNFEFRGTREPVKHSTKTLSAAARGAMAGGYCSSELVAGGVVTTIMTPEELREIESICQSTGNEAWNSVFIDELRRKTLIKRHWKTLMQVIEEQNLSVPIEETYQCDFANGGY
Regarding B7, the “Activity across all experiments” value in assay [1] is −2.321. For the same molecule, in the assay on gene editing with dCas9, the “dCas9 with SSAP activity” value is −3.063 and the “dCas9 with SSAP activity (normalized)” value is −2.608. In the assay on gene editing with Cas9, the “Cas9 with SSAP activity” value is on record as −1.578 and the “Cas9 with SSAP activity (normalized)” value is reported as −0.629.

B8: SSAP_113: SEQ ID NO: 282; Acinetobacter sp. RIT592 (protein, listed as Acinetobacter sp.)
chain: ADLKNKLANKAAGTVTKTSPNAGMKQLMKSMSKEIEAALPSHMSSERFQRVALTAFGNNPKLMNCDPMSFIAAMMDSAQLGLEPNTPLGQAYLIPYGTKVQFQVGYKGLLELALRSGKIKTLYAHEVRENDTFEVKYGLHQDLIHEPVLKGNRGEVIGYYAVYHLDTGGHSFVFMTKDEVLEHAKGKSKTFNNGPWQTDFDAMAKKTVIKQLLKYAPLSIEMQKAVSSDETVKSKIDEDMSLVVDESDSIEANFEIKEDEDGQLDVYVK
On to B8, for which the “Activity across all experiments” value in assay [1] is −3.431. Further, in the assay with gene editing with dCas9, the “dCas9 with SSAP activity” value is on record as −3.134 and the “dCas9 with SSAP activity (normalized)” value was −3.818. Also, in the assay with gene editing with Cas9, the “Cas9 with SSAP activity” value is reported as −3.728 and the “Cas9 with SSAP activity (normalized)” value is recorded as −3.241.

Values taken from patent publication US20250034594A1, “RNA-GUIDED GENOME RECOMBINEERING AT KILOBASE SCALE” (THE BOARD OF TRUSTEES OF THE LELAND STANFORD JUNIOR …, priority 2021, published 2025).
